This passage reports Aβ40 and Aβ42 results from US9790551B2, “Use of TRPC6 mRNA levels in peripheral blood cells for early detection/diagnosis of senile dementia” (Aging Wise Biotechnology, Inc., priority 2013, dated 2017).

For assay [1], the system named is Aβ levels in HEK293APP stable cells. The assay can be described thus: Aβ ELISA, HEK293APP stable cells treated with TAT fusion peptides. In kind it is cell-based. To be noted: TAT = 1. As for the experimental part:
(§1) Upon collecting the culture medium of the cells, Aβ40 and Aβ42 levels were quantified with sandwich ELISA kit, respectively (purchased from Invitrogen). The forebrain of the mouse was dissected and separated, and then homogenized with GuHCL. After that, total Aβ was determined by ELISA. For determining TBST(Tris-Buffered Saline and 1% TritonX100, 1% SDS, 1% DOC) soluble and insoluble Aβ, upon TBST homogenation and centrifugation of the forebrain of the mouse, the supernatant was determined for TBST soluble Aβ by ELISA, and the precipitate was determined for TBST insoluble Aβ by ELISA upon another GuHCL homogenate.
In this Example, the second transmembrane domain (487-507aa, TM2) was selected to fuse with cell penetrating peptide TAT and the fusion peptide TAT-TM2 and the mutant thereof TAT-TM2mut were obtained. Their effects on Aβ levels were examined in HEK293APP stable cells.
6.1.2 The Effect of Different Doses of Fusion Protein TAT-TM2 on Aβ Levels in HEK293APP Stable Cells were Determined.
To search for shorter fragments which could inhibit Aβ levels, TM2 was divided into N- and C-terminals and fused with TAT respectively. The effects of TAT-TM2-N, TAT-TM2-C and TAT-TM2-C mutant on Aβ levels in HEK293APP cells was examined.
Background: In an ELISA, binding on a coated surface is turned into a signal by an enzyme label.

Assay [2] shares this test system. The assay can be described thus: Aβ ELISA of culture medium, HEK293APP stable cells transfected with TRPC plasmids. To be noted: empty vector = 1. Type of assay: cell-based. As for the experimental part: as §1
HEK293APP stable cell line was cultured in DMEM culture solution (containing 200 ng/ml G418) with 10% FBS. C0S7C99 cells were cultured in MEM/F12 culture solution (containing 0.4 ug/ml hygromycin B) with 5% FBS, 1% NEAA, and 200 mM Glutamax. All the transfection was conducted by using Lipofectamin 2000 (Invitrogen).
HEK293 cells were inoculated to 60 mm dishes. When the density was close to 80%, 4 ug APP plasmid was transfected with Lipofectamine 2000. After 4 h, the culture medium was replaced and 400 ng/ml of G418 was added. Cells were passage 2 days later and G418 in the culture was maintained at 400 ng/ml. After 2-3 weeks, the cells not transected died gradually, and the survived cells were HEK293 cells expressing APP. Then, G418 was reduced to and maintained at 200 ng/ml.
TRPC6 or TRPC5 was overexpressed in HEK293APP stable cell lines respectively (Cells were passaged into 12-well plates till the densities were close to 80%. Each well was transfected with 1 ug plasmid using Lipofectamine 2000, and the Aβ levels in the medium were determined with ELISA after 48 hr).
Afterwards, HEK293APP stable cells were passaged in 12-well plate till the density approached 80%. Each well was transfected with lug plasmid using Lipofectamine 2000, and the Aβ levels in the culture medium were determined with ELISA after 48 h. The targeting fragment was primarily narrowed down to 437-507aa.
The […] of TRPC6 contains the first transmembrane regions(TM1), the first extracellular loop (Loop1), and the second transmembrane regions (TM2). To further narrow down the active domain, we constructed 3 variant plasmids, with TM2 region replacement by TM1 region (C6-mut1), reversal of TM2 sequence (C6-mut2) or point mutations within TM2 region(C6-mut3). Then HEK293APP stable cells were passaged in 12-well plate. When the density was close to 80%, every well was transfected with lug plasmid using Lipofectamine 2000, and the Aβ levels in the medium were determined with ELISA after 48 h. The active fragment was further narrowed down to 487-507aa.

Setting [3] is: Table 9, TAT-TM2 variants, HEK293APP cells.
Setting [4] is: Table 8, HEK293APP stable cells.
Where [5] appears, read: Table 1, HEK293APP stable cell, 1 ug plasmid, medium ELISA after 48 hr.
Setting [6] is: Table 4, TRPC6 fragments, HEK293APP stable cells, 48 h.

Turning to “TAT-TM2-C-m1: TAT-TM2-C mutant, SEQ ID NO.:25, DDSWVIGMIWAGRKKRRQRRRC (fusion protein)”, in assay [1] (setting [3]), the Aβ40 is listed as 0.54 ± 0.01 and the Aβ42 was 0.33 ± 0.07.
In assay [1] (setting [3]), “TAT-TM2-C-m2: TAT-TM2-C mutant, SEQ ID NO.:26, IISDDIGMIWAGRKKRRQRRRC (fusion protein)” registered an Aβ40 of 1.09 ± 0.10 and an Aβ42 of 1.04 ± 0.15.
For the molecule “TAT-TM2-C-m3: TAT-TM2-C mutant, SEQ ID NO.:27, IISWVIGMDDAGRKKRRQRRRC (fusion protein)”, in assay [1] (setting [3]), the Aβ40 is reported as 1.07 ± 0.11 and the Aβ42 came to 1.07 ± 0.13.
In the case of “TAT-TM2-C: C-terminal of TM2 fused with TAT, SEQ ID NO.:24, IISWVIGMIWAGRKKRRQRRRC (fusion protein)”, in assay [1] (setting [3]), the Aβ40 is reported as 0.71 ± 0.07 and the Aβ42 is recorded as 0.72 ± 0.03.
In assay [1] (setting [3]), “TAT-TM2-N: N-terminal of TM2 fused with TAT, SEQ ID NO.:23, TSCFSWMEMLGRKKRRQRRRC (fusion protein)” gave an Aβ40 of 0.97 ± 0.04 and an Aβ42 of 0.97 ± 0.04.
On to “TAT-TM2-mut: mutated TAT-TM2 peptide, SEQ ID NO.:22, TSCFSWMEMLIISDDIGMDDAGRKKRRQRRRC (fusion protein)”, for which, in assay [1] (setting [4]), the Aβ40 was 0.89 ± 0.07 and the Aβ42 stood at 0.93 ± 0.09.

B1: TRPC5: TRPC family member TRPC5, overexpressed from plasmid as comparison (protein, UniProt Q9UL62 1-973, looked up)
chain: MAQLYYKKVNYSPYRDRIPLQIVRAETELSAEEKAFLNAVEKGDYATVKQALQEAEIYYNVNINCMDPLGRSALLIAIENENLEIMELLLNHSVYVGDALLYAIRKEVVGAVELLLSYRRPSGEKQVPTLMMDTQFSEFTPDITPIMLAAHTNNYEIIKLLVQKRVTIPRPHQIRCNCVECVSSSEVDSLRHSRSRLNIYKALASPSLIALSSEDPILTAFRLGWELKELSKVENEFKAEYEELSQQCKLFAKDLLDQARSSRELEIILNHRDDHSEELDPQKYHDLAKLKVAIKYHQKEFVAQPNCQQLLATLWYDGFPGWRRKHWVVKLLTCMTIGFLFPMLSIAYLISPRSNLGLFIKKPFIKFICHTASYLTFLFMLLLASQHIVRTDLHVQGPPPTVVEWMILPWVLGFIWGEIKEMWDGGFTEYIHDWWNLMDFAMNSLYLATISLKIVAYVKYNGSRPREEWEMWHPTLIAEALFAISNILSSLRLISLFTANSHLGPLQISLGRMLLDILKFLFIYCLVLLAFANGLNQLYFYYETRAIDEPNNCKGIRCEKQNNAFSTLFETLQSLFWSVFGLLNLYVTNVKARHEFTEFVGATMFGTYNVISLVVLLNMLIAMMNNSYQLIADHADIEWKFARTKLWMSYFDEGGTLPPPFNIIPSPKSFLYLGNWFNNTFCPKRDPDGRRRRRNLRSFTERNADSLIQNQHYQEVIRNLVKRYVAAMIRNSKTHEGLTEENFKELKQDISSFRYEVLDLLGNRKHPRSFSTSSTELSQRDDNNDGSGGARAKSKSVSFNLGCKKKTCHGPPLIRTMPRSSGAQGKSKAESSSKRSFMGPSLKKLGLLFSKFNGHMSEPSSEPMYTISDGIVQQHCMWQDIRYSQMEKGKAEACSQSEINLSEVELGEVQGAAQSSECPLACSSSLHCASSICSSNSKLLDSSEDVFETWGEACDLLMHKWGDGQEEQVTTRL
modifications: full-length
notes: TRPC family member TRPC5, overexpressed from plasmid as comparison
In assay [2] (setting [5]), B1 had an Aβ40 of 0.9900 ± 0.02548 and an Aβ42 of 0.9488 ± 0.02053.

B2: 725/930aa: TRPC6 fragment 725~930aa expressed from plasmid (protein, UniProt Q9Y210 725-930, looked up, fragment)
chain: AMINSSFQEIEDDADVEWKFARAKLWFSYFEEGRTLPVPFNLVPSPKSLFYLLLKLKKWISELFQGHKKGFQEDAEMNKINEEKKLGILGSHEDLSKLSLDKKQVGHNKQPSIRSSEDFHLNSFNNPPRQYQKIMKRLIKRYVLQAQIDKESDEVNEGELKEIKQDISSLRYELLEEKSQNTEDLAELIRELGEKLSMEPNQEETN
On to B2, for which, in assay [2] (setting [6]), the Aβ40 is reported as 1.007 ± 0.07289 and the Aβ42 came out at 0.9822 ± 0.0099.

B3: 389/510aa: TRPC6 fragment 389~510aa expressed from plasmid (protein, UniProt Q9Y210 389-510, looked up, fragment)
chain: SIWYENLSGLRQQTMAVKFLVVLAVAIGLPFLALIYWFAPCSKMGKIMRGPFMKFVAHAASFTIFLGLLVMNAADRFEGTKLLPNETSTDNAKQLFRMKTSCFSWMEMLIISWVIGMIWAEC
In assay [2] (setting [6]), B3 registered an Aβ40 of 0.5959 ± 0.08036 and an Aβ42 of 0.6131 ± 0.1299.

B4: 508/633aa: TRPC6 fragment 508~633aa expressed from plasmid (protein, UniProt Q9Y210 508-633, looked up, fragment)
chain: AECKEIWTQGPKEYLFELWNMLDFGMLAIFAASFIARFMAFWHASKAQSIIDANDTLKDLTKVTLGDNVKYYNLARIKWDPSDPQIISEGLYAIAVVLSFSRIAYILPANESFGPLQISLGRTVKD
Consider B4, for which, in assay [2] (setting [6]), the Aβ40 is listed as 1.016 ± 0.04396 and the Aβ42 amounted to 1.042 ± 0.02037.

B5: 389/930aa: TRPC6 fragment 389~930aa expressed from plasmid (protein, UniProt Q9Y210 389-930, looked up, fragment)
chain: SIWYENLSGLRQQTMAVKFLVVLAVAIGLPFLALIYWFAPCSKMGKIMRGPFMKFVAHAASFTIFLGLLVMNAADRFEGTKLLPNETSTDNAKQLFRMKTSCFSWMEMLIISWVIGMIWAECKEIWTQGPKEYLFELWNMLDFGMLAIFAASFIARFMAFWHASKAQSIIDANDTLKDLTKVTLGDNVKYYNLARIKWDPSDPQIISEGLYAIAVVLSFSRIAYILPANESFGPLQISLGRTVKDIFKFMVIFIMVFVAFMIGMFNLYSYYIGAKQNEAFTTVEESFKTLFWAIFGLSEVKSVVINYNHKFIENIGYVLYGVYNVTMVIVLLNMLIAMINSSFQEIEDDADVEWKFARAKLWFSYFEEGRTLPVPFNLVPSPKSLFYLLLKLKKWISELFQGHKKGFQEDAEMNKINEEKKLGILGSHEDLSKLSLDKKQVGHNKQPSIRSSEDFHLNSFNNPPRQYQKIMKRLIKRYVLQAQIDKESDEVNEGELKEIKQDISSLRYELLEEKSQNTEDLAELIRELGEKLSMEPNQEETN
For the molecule B5, in assay [2] (setting [6]), the Aβ40 came to 0.7699 ± 0.07728 and the Aβ42 turned out to be 0.7217 ± 0.0695.

B6: 1/405aa: TRPC6 fragment 1~405aa expressed from plasmid (protein, UniProt Q9Y210 1-405, looked up, fragment)
chain: MSQSPAFGPRRGSSPRGAAGAAARRNESQDYLLMDSELGEDGCPQAPLPCYGYYPCFRGSDNRLAHRRQTVLREKGRRLANRGPAYMFSDRSTSLSIEEERFLDAAEYGNIPVVRKMLEECHSLNVNCVDYMGQNALQLAVANEHLEITELLLKKENLSRVGDALLLAISKGYVRIVEAILSHPAFAEGKRLATSPSQSELQQDDFYAYDEDGTRFSHDVTPIILAAHCQEYEIVHTLLRKGARIERPHDYFCKCNDCNQKQKHDSFSHSRSRINAYKGLASPAYLSLSSEDPVMTALELSNELAVLANIEKEFKNDYKKLSMQCKDFVVGLLDLCRNTEEVEAILNGDVETLQSGDHGRPNLSRLKLAIKYEVKKFVAHPNCQQQLLSIWYENLSGLRQQTMAV
In assay [2] (setting [6]), B6 gave an Aβ40 of 0.9674 ± 0.06376 and an Aβ42 of 0.9822 ± 0.03662.

B7: 437/633aa: TRPC6 fragment 437~633aa expressed from plasmid (protein, UniProt Q9Y210 437-633, looked up, fragment)
chain: RGPFMKFVAHAASFTIFLGLLVMNAADRFEGTKLLPNETSTDNAKQLFRMKTSCFSWMEMLIISWVIGMIWAECKEIWTQGPKEYLFELWNMLDFGMLAIFAASFIARFMAFWHASKAQSIIDANDTLKDLTKVTLGDNVKYYNLARIKWDPSDPQIISEGLYAIAVVLSFSRIAYILPANESFGPLQISLGRTVKD
In assay [2] (setting [6]), B7 returned an Aβ40 of 0.8146 ± 0.07986 and an Aβ42 of 0.7096 ± 0.09708.
